The target in assay [1] is T1, cynomolgus monkey full-length CD73 on CHO-K1 cells (cynomolgus monkey, UniProt A0A2K5V5U7 27-549).
T1 construct: whole, on cells; also called monkey CD73 protein expressed on cells; cynomolgus monkey CD73 on cell surface
T1 sequence: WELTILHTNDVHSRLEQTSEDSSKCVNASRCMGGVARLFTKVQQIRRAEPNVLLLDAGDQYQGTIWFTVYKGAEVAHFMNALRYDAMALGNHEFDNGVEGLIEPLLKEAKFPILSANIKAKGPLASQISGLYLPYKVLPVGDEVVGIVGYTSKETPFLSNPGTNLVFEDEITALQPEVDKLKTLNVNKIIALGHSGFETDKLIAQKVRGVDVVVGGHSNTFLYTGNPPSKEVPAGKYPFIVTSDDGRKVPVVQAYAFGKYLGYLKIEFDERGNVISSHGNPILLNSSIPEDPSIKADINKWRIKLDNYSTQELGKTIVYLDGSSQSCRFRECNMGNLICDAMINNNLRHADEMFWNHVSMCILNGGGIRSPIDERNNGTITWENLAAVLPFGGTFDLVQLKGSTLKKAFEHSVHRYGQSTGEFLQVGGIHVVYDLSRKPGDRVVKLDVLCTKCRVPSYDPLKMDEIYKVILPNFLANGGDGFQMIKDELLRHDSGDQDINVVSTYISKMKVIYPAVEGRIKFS
Description: flow cytometry on CHO-K1 cells expressing monkey full-length CD73. The protocol:
In order to characterize the ability of the humanized antibodies prepared in the present application to recognize the cynomolgus monkey CD73 molecule on the cell membrane, CHO-K1 cells capable of stably expressing monkey full-length CD73 were constructed. The cells were seeded in a 96-well plate at a density of 2×10⁶ cells/mL, with 100 μL per well. The plate was washed three times with a PBS buffer, and the supernatant was discarded. The antibodies diluted in a gradient with a PBS buffer were added, and the mixture was incubated at 4° C. for 1 h. The cells were washed 3 times with a PBS buffer, followed by labeling with Alexa Fluor 488-labeled goat anti-human IgG antibody at 4° C. in the dark for 50 min. The cells were then washed 3 times with a PBS buffer, and the fluorescence intensity of the cells was read by a flow cytometer.
As shown in the results in FIG. 5 and Table 10, the prepared humanized antibodies could bind to the monkey CD73 protein expressed on cells in a dose-dependent manner.
In general terms: A flow cytometer gives signals particle by particle.

Assay [2] concerns the target T2, C-terminal portion of the CD73 protein (Homo sapiens (Human), UniProt P21589 337-549).
T2 construct: also called CD73 C-terminal protein; C-terminus of the CD73 protein
T2 sequence: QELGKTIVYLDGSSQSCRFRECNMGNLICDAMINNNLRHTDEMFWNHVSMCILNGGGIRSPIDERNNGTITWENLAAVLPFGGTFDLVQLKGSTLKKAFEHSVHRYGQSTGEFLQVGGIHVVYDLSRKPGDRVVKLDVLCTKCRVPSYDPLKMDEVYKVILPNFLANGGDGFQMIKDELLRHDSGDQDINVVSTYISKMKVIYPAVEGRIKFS
Description: ELISA, plate coated with CD73 C-terminal protein at 1 µg/mL. The protocol: In this example, the C-terminal portion (SEQ ID NO. 41) and the N-terminal portion (SEQ ID NO. 42) of the CD73 protein were separately constructed, and the epitopes recognized by the antibodies were detected by ELISA method. Elisa plates were respectively coated with the CD73 N-terminal and C-terminal proteins at a concentration of 1 μg/mL. The test antibodies were diluted in a gradient.
(In general: In an ELISA, binding on a coated surface is turned into a signal by an enzyme label.)

For assay [3], the target named is T3, cynomolgus monkey CD73 protein (cynomolgus monkey, UniProt A0A2K5V5U7 27-547).
T3 construct: construct not described
T3 sequence: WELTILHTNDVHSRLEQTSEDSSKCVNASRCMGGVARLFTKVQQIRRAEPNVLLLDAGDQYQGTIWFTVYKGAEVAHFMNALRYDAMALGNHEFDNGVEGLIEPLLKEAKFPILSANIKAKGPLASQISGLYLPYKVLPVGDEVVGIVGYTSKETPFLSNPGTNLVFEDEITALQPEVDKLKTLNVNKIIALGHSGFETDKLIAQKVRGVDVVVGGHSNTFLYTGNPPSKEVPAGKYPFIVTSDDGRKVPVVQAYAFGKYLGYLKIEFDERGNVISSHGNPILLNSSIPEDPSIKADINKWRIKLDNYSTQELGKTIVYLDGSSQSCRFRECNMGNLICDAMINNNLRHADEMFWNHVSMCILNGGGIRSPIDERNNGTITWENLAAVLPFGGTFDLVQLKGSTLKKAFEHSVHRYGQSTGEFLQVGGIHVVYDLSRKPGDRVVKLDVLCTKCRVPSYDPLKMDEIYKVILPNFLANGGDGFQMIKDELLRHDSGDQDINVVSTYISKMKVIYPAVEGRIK
Nature of the assay: BLI (Fortebio), cynomolgus CD73 on HIS1K biosensors, antibody as analyte. The protocol:
In this example, the cross-binding ability of the exemplary humanized anti-CD73 antibodies of the present application to cynomolgus monkey CD73 was assayed by a Fortebio experiment. The specific implementation steps included immobilizing the cynomolgus monkey CD73 protein onto HIS1K biosensors. […] The times for the ligand-analyte binding and dissociation were 120 s and 300 s, respectively. The data of the antigen-antibody affinity were calculated by regression according to the binding curves using an analysis software.
On the technique in general: BLI is a label-free optical method that tracks binding on a fibre tip over time.

Assay [4] has as its target T4, recombinant human CD73 protein (human, UniProt P21589 27-547).
T4 construct: Bought soluble protein; The background says that CD73 forms a homodimer; also called soluble CD73; free CD73 protein
T4 sequence (looked up): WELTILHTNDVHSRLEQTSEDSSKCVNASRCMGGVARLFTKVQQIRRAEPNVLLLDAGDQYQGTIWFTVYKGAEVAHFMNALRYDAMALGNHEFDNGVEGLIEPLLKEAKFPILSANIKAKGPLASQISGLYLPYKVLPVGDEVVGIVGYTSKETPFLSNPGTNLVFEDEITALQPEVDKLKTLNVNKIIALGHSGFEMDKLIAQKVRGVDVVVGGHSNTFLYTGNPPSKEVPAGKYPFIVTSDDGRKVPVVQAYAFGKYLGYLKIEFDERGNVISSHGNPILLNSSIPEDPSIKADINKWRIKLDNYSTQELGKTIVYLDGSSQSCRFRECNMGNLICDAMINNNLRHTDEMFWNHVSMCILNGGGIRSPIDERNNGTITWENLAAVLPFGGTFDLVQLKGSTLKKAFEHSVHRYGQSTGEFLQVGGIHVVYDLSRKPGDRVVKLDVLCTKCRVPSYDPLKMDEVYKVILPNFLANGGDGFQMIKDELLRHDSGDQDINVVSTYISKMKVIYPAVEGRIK
Nature of the assay: ELISA, plate coated with recombinant CD73 protein at 1 µg/mL. The protocol:
The affinity of the humanized antibodies to the recombinant CD73 protein was determined using an ELISA method. A elisa plate was coated with the CD73 protein at a concentration of 1 μg/mL. 5-fold gradient dilutions (0-66.7 nM) of the test antibodies were added.

B1: Hab7C3C2.5 (antibody, human IgG1, kappa, L234A L235A, V domains shown)
VH: QVQLVQSGAEVKKPGASVKVSCKASGYTFTSYDINWVRQATGQGLEWIGWIYPRDGFTKYNEKFKGRVTLTVNTSISTAYMELSSLRSEDTAVYYCARKEGYRGDWYFDVWGQGTTVTVSS
VL: DIQMTQSPSSLSASVGDRVTITCRASGNVHNYLAWYQQKPGKAPKLLLYNAKTLASGVPSRFSGSGSGTDYTLTISSLQPEDFATYYCQHFWSTPWTFGGGTELEIKR
notes: Humanized 7C3C2; also called Hab7C3C.5
One may read the EC50 as the midpoint of the concentration-response curve. Usually Kd stands for the constant that tells how readily two partners part at equilibrium. The term koff denotes the rate constant with which the complex falls apart. The kon is the second-order rate constant of association. B1: in assay [1], it took 11.3 nM to reach a half-maximal effect (EC50). In addition, the binding result in assay [2] is recorded as “no binding”. Also, in assay [3], the equilibrium dissociation constant (Kd) came to 0.732 nM, the koff is 0.00299 s⁻¹ and the kon was 4.08e+06 M⁻¹ s⁻¹. Besides, the EC50 in assay [4] was found to be 0.013 nM.

B2: Hab1F2F9.15 (antibody, human IgG1, kappa, L234A L235A, V domains shown)
VH: QVQLVQSGAEVKKPGASVKVSCKASGYTFTSYWMHWVRQAPGQRLEWMGNINPSNGGTKYSQKFQGRVTITVDTSASTAYMELSSLRSEDTAVYYCARRDYGSPSYWGQGTTVTVSS
VL: DIQMTQSPSSLSASVGDRVTITCKASQDINSYLTWFQQKPGKAPKSLIYRTNILLDGVPSRFSGSGSGTDYTLTISSLQPEDFATYYCLQYHEFPVTFGGGTKLEIKR
notes: Humanized 1F2F9; also called Huab1F2F9.15; HuablF2F9.15
In assay [1], B2 came in with a concentration for a half-maximal effect (EC50) of 1.51 nM. The binding result in assay [2] was “no binding”. For the same molecule, in assay [3], the Kd was 0.814 nM, the off-rate constant (koff) was found to be 0.0017 s⁻¹ and the on-rate (kon) was found to be 2.09e+06 M⁻¹ s⁻¹. Besides, the concentration giving a half-maximal response (EC50) in assay [4] was 0.011 nM.

The values are drawn from US20260152567A1 (CSPC MEGALITH BIOPHARMACEUTICAL, published 2026).
